Experimental findings from PMC10799422, “A role for the ATP-dependent DNA ligase lig E of Neisseria gonorrhoeae in biofilm formation” are described below.

This data set deals with T1, Ngo-Lig E (ATP-dependent DNA ligase Lig E), mature, His-tagged (Neisseria gonorrhoeae MS11, UniProt PDB:8U6X_1 1-279).
T1 sequence: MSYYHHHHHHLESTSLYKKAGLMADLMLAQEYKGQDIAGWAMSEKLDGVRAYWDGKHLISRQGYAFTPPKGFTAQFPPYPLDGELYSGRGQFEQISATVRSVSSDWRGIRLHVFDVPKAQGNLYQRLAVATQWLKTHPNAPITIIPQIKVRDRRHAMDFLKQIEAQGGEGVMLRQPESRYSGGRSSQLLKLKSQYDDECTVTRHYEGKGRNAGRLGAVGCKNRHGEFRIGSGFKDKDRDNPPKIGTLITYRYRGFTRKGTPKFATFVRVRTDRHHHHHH
Put plainly: X-ray crystallography (2.44 A); 5 mM EDTA; enzyme-adenylate; open non-catalytic conformation, non-specific engagement of unbroken duplex, only 6 bp visible (averaged register); Crystallization: 478.7 uM protein, 1.2 molar excess DNA, 5 mM EDTA, 1 h on ice; crystals in 0.5 M potassium thiocyanate, 0.1 M Bis Tris Propane pH 8.0, 18 C. Particulars: protein: recombinant; tags: C-terminal His (N-terminal His-MBP tag cleaved by TEV); nicked duplex, 3 strands; as printed the 9-mer and 11-mer leave a 1-nt gap (C) opposite the 21-mer; blunt outer ends.

B1: nicked 21-mer duplex used for co-crystallization (dsDNA)
DNA 1: ATTGCGACC
DNA 2: CACTATCGGAA
DNA 3: TTCCGATAGTGGGGTCGCAAT
modifications: 5'-phosphate on CACTATCGGAA
Consider B1, for which the binding result is “binds”.
